Experimental data taken from patent publication US8431365B2, “β1,3-N-acetyl-D-galactosamine transferase protein, nucleic acid encoding the same and method of examining canceration using the same” (National Institute of Advanced Industrial Science and …, priority 2003, dated 2013).
Each block holds one molecule with its values, some of them ahead of it.

What was measured:
Type in all cases: biochemical
human G34 protein [1] = target: T1, human G34 protein (Homo sapiens, UniProt Q8NCR0); experiment: Screening of GalNAc transferase activity (acceptor substrate specificity, monosaccharide acceptors); conditions: 10 nmol acceptor, MES pH 6.5, MnCl2 10 mM, 37° C. 16 hours
T1 construct: made in house; host or cells: Sf21 insect cells (baculovirus, pFBIF-G34A)
T1 sequence (Q8NCR0 36-500): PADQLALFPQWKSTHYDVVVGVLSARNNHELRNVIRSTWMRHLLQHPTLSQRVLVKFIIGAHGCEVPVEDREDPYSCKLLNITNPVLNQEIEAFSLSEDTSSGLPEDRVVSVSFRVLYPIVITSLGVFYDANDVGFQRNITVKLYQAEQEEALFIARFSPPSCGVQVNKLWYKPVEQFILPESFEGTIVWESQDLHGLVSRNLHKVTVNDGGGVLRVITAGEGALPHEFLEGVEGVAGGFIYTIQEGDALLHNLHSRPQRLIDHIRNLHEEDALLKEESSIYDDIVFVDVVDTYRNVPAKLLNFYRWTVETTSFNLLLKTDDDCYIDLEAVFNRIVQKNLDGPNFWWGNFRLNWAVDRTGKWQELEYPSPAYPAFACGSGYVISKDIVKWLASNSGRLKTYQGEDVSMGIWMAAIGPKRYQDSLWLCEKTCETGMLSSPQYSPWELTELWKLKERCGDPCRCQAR
From the text: The following reaction system was used for examining the G34 enzyme protein for its acceptor substrate specificity in its GalNAc transfer activity.
In the reaction solutions shown below, each of the following was used at 10 nmol as an acceptor substrate: pNp-α-Gal, oNp-β-Gal, Bz-α-GlcNAc, pNp-β-GlcNAc, Bz-α-GalNAc, pNp-β-GalNAc, pNp-α-Glc, pNp-β-Glc, pNp-β-GlcA, pNp-α-Fuc, pNp-α-Xyl, pNp-β-Xyl and pNp-α-Man (all purchased from SIGMA), wherein “Gal” represents a D-galactose residue, “Xyl” represents a D-xylose residue, “Fuc” represents a […] residue, “Man” represents a D-mannose residue and “GlcA” represents a glucuronic acid residue.
Each reaction solution was prepared as follows (final concentrations in parentheses): each substrate (10 nmol), MES (2-morpholinoethanesulfonic acid) (pH 6.5, 50 mM), MnCl2 (10 mM), Triton X-100 (trade name) (0.1%), UDP-GalNAc (2 mM) and UDP-[^14C]GlcNAc (40 nCi) were mixed and supplemented with 5 μl G34 enzyme solution, followed by dilution with H2O to a total volume of 20 μl (see Table 1).
The above reaction mixtures were each reacted at 37° C. for 16 hours. After completion of the reaction, 200 μl H2O was added and each mixture was lightly centrifuged to obtain the supernatant. […] The eluate was mixed with 5 ml liquid scintillator ACSII (Amersham Biosciences) and measured for the amount of radiation with a scintillation counter (Beckman Coulter).

human G34 protein [2] = target: T1, human G34 protein; experiment: Time course of G34 enzymatic activity with Bz-β-GlcNAc as acceptor
human G34 protein [3] = target: T1, human G34 protein; experiment: Optimum buffer and optimum pH for GalNAc transferase activity of G34; conditions: acceptor pNp-β-GlcNAc
Protocol: The following reaction system was used for examining the optimum buffer and pH for the GalNAc transferase activity of G34. The acceptor substrate used was pNp-β-GlcNAc.
Any one of the following buffers was used (final concentrations in parentheses): MES (2-morpholinoethanesulfonic acid) buffer (pH 5.5, 5.78, 6.0, 6.5 and 6.75, 50 mM), sodium cacodylate buffer (pH 5.0, 5.6, 6.0, 6.2, 6.6, 6.8, 7.0, 7.2, 7.4 and 7.5, 25 mM) and N-[2-hydroxyethyl]piperazine-N′-[2-ethanesulfonic acid](HEPES) buffer (pH 6.75, 7.00, 7.30, 7.40 and 7.50, 14 mM). The substrate (10 nmol), MnCl2 (10 mM), Triton CF-54 (trade name) (0.3%), UDP-GalNAc (2 mM) and […] (40 nCi) were mixed and supplemented with 5 μl G34 enzyme solution, followed by dilution with H2O to a total volume of 20 μl.
The above reaction mixtures were each reacted at 37° C. for 16 hours. After completion of the reaction, 200 μl H2O was added and each mixture was lightly centrifuged to obtain the supernatant. The supernatant was passed through a Sep-Pak plus C18 Cartridge (Waters), which had been washed once with 1 ml methanol and twice with 1 ml H2O and then equilibrated, to allow the substrate and product in the supernatant to adsorb to the cartridge. After washing the cartridge twice with 1 ml H2O, the adsorbed substrate and product were eluted with 1 ml methanol. The eluate was mixed with 5 ml liquid scintillator ACSII (Amersham Biosciences) and measured for the amount of radiation with a scintillation counter (Beckman Coulter).

[4] = sodium cacodylate buffer pH 5.0
[5] = sodium cacodylate buffer pH 5.6
[6] = sodium cacodylate buffer pH 6.0
[7] = sodium cacodylate buffer pH 6.2
[8] = sodium cacodylate buffer pH 6.6
[9] = sodium cacodylate buffer pH 6.8
[10] = sodium cacodylate buffer pH 7.0
[11] = sodium cacodylate buffer pH 7.2
[12] = sodium cacodylate buffer pH 7.4

Molecule: CC(=O)N[C@H]1[C@H](Oc2ccc([N+](=O)[O-])cc2)O[C@H](CO)[C@@H](O)[C@@H]1O [pNp-β-GlcNAc]
GalNAc transfer to acceptor substrate (human G34 protein [1]): ability to transfer GalNAc to pNp-β-GlcNAc

Area (%) (human G34 protein [2]; reaction time 1 hour): 0%
Area (%) (human G34 protein [2]; reaction time 2 hours): 2.388%
Area (%) (human G34 protein [2]; reaction time 4 hours): 6.195%
Area (%) (human G34 protein [2]; reaction time 16 hours): 13.719%
+ (amount of radiation) (human G34 protein [3]; HEPES buffer pH 6.75): 4894
HEPES (+ minus −) (human G34 protein [3]; HEPES buffer pH 6.75): 4745
+ (amount of radiation) (human G34 protein [3]; HEPES buffer pH 7.00): 4912
HEPES (+ minus −) (human G34 protein [3]; HEPES buffer pH 7.00): 4791
+ (amount of radiation) (human G34 protein [3]; HEPES buffer pH 7.30): 4294
HEPES (+ minus −) (human G34 protein [3]; HEPES buffer pH 7.30): 4167
+ (amount of radiation) (human G34 protein [3]; HEPES buffer pH 7.40): 6630
HEPES (+ minus −) (human G34 protein [3]; HEPES buffer pH 7.40): 6510
+ (amount of radiation) (human G34 protein [3]; HEPES buffer pH 7.50): 6895
HEPES (+ minus −) (human G34 protein [3]; HEPES buffer pH 7.50): 6655
+ (amount of radiation) (human G34 protein [3]; MES buffer pH 5.50): 3735
MES (+ minus −) (human G34 protein [3]; MES buffer pH 5.50): 3538
+ (amount of radiation) (human G34 protein [3]; MES buffer pH 5.78): 3755
MES (+ minus −) (human G34 protein [3]; MES buffer pH 5.78): 3571
+ (amount of radiation) (human G34 protein [3]; MES buffer pH 6.00): 2514
MES (+ minus −) (human G34 protein [3]; MES buffer pH 6.00): 2373
+ (amount of radiation) (human G34 protein [3]; MES buffer pH 6.50): 1981
MES (+ minus −) (human G34 protein [3]; MES buffer pH 6.50): 1247
+ (amount of radiation) (human G34 protein [3]; MES buffer pH 6.75): 3289
MES (+ minus −) (human G34 protein [3]; MES buffer pH 6.75): 3153
+ (amount of radiation) (human G34 protein [3]; [4]): 6042
+ (amount of radiation) (human G34 protein [3]; [5]): 3353
+ (amount of radiation) (human G34 protein [3]; [6]): 2689
+ (amount of radiation) (human G34 protein [3]; [7]): 907
+ (amount of radiation) (human G34 protein [3]; [8]): 1093
+ (amount of radiation) (human G34 protein [3]; [9]): 2488
+ (amount of radiation) (human G34 protein [3]; [10]): 4965
+ (amount of radiation) (human G34 protein [3]; [11]): 4377
+ (amount of radiation) (human G34 protein [3]; [12]): 4930
B1: G34: human β1,3-N-acetyl-D-galactosaminyltransferase protein (SEQ ID NO: 2), expressed FLAG-tagged from amino acid 36 to the C-terminal end (protein, listed as Homo sapiens)
chain: PADQLALFPQWKSTHYDVVVGVLSARNNHELRNVIRSTWMRHLLQHPTLSQRVLVKFIIGAHGCEVPVEDREDPYSCKLLNITNPVLNQEIEAFSLSEDTSSGLPEDRVVSVSFRVLYPIVITSLGVFYDANDVGFQRNITVKLYQAEQEEALFIARFSPPSCGVQVNKLWYKPVEQFILPESFEGTIVWESQDLHGLVSRNLHKVTVNDGGGVLRVITAGEGALPHEFLEGVEGVAGGFIYTIQEGDALLHNLHSRPQRLIDHIRNLHEEDALLKEESSIYDDIVFVDVVDTYRNVPAKLLNFYRWTVETTSFNLLLKTDDDCYIDLEAVFNRIVQKNLDGPNFWWGNFRLNWAVDRTGKWQELEYPSPAYPAFACGSGYVISKDIVKWLASNSGRLKTYQGEDVSMGIWMAAIGPKRYQDSLWLCEKTCETGMLSSPQYSPWELTELWKLKERCGDPCRCQAR
modifications: FLAG tag
Sodium cacodylate (+ minus −) (human G34 protein [3]; [4]): 5838
Sodium cacodylate (+ minus −) (human G34 protein [3]; [5]): 3194
Sodium cacodylate (+ minus −) (human G34 protein [3]; [6]): 2429
Sodium cacodylate (+ minus −) (human G34 protein [3]; [7]): 769
Sodium cacodylate (+ minus −) (human G34 protein [3]; [8]): 957
Sodium cacodylate (+ minus −) (human G34 protein [3]; [9]): 2230
Sodium cacodylate (+ minus −) (human G34 protein [3]; [10]): 4706
Sodium cacodylate (+ minus −) (human G34 protein [3]; [11]): 4068
Sodium cacodylate (+ minus −) (human G34 protein [3]; [12]): 4626
